# Source: US20140086829A1 (BIOREC S A, published 2014)
# T1: human GST-VEGF (human, UniProt P15692-9 27-147)
# T1 construct: also called GST-VEGF humano; not shown: GST fusion partner
# T1 sequence (looked up): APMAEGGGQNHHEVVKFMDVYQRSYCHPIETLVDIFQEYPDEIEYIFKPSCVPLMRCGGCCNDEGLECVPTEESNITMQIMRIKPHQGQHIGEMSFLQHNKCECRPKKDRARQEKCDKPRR
# B1: soluble scFv 2H1 antibody fragment (scFv, from another filing)
# scFv: QQVQLVQSGAEVKKPGESLKISCKGSGYSFTSYWIGWVRQMPGKGLEWMGIIYPGDSDTRYSPSFQGQVTISADKSISTAYLQWSSLKASDTAMYYCARLVVRDTEIWGQGTMVTVSSAPQAKSSGSGSESKVDQAVVTQEPSLTVSPGGTVTLTCASSIGAVTSGNYPNWFQQRPGQPPRALIYSTSNKHSWTPARFSGSLLGGKAALTLSGAQPEDEAEYYCLLSYSGARPVFGGGTKLTVLGAAAGSEQKLISEEDLNSHHHHHH
# Assays:
# human GST-VEGF [1] = molecular target: T1, human GST-VEGF; assay: competition ELISA on coated GST-VEGF; soluble scFv 2H1 titrated; competitor phage scFv 3E9
# human GST-VEGF [2] = molecular target: T1, human GST-VEGF; assay: competition ELISA on coated GST-VEGF; soluble scFv 2H1 titrated; competitor phage scFv 1B1
# human GST-VEGF [3] = molecular target: T1, human GST-VEGF; assay: competition ELISA on coated GST-VEGF; soluble scFv 2H1 titrated; competitor phage scFv 3F3
# human GST-VEGF [4] = molecular target: T1, human GST-VEGF; assay: competition ELISA on coated GST-VEGF; soluble scFv 2H1 titrated; competitor phage scFv 2H10
# human GST-VEGF [5] = molecular target: T1, human GST-VEGF; assay: competition ELISA on coated GST-VEGF; soluble scFv 2H1 titrated; competitor phage scFv 1H2
# human GST-VEGF [6] = molecular target: T1, human GST-VEGF; assay: competition ELISA on coated GST-VEGF; soluble scFv 2H1 titrated; competitor phage scFv 4D8
# human GST-VEGF [7] = molecular target: T1, human GST-VEGF; assay: competition ELISA on coated GST-VEGF; soluble scFv 2H1 titrated; competitor phage scFv 3E2
# human GST-VEGF [8] = molecular target: T1, human GST-VEGF; assay: competition ELISA on coated GST-VEGF; soluble scFv 2H1 titrated; competitor phage scFv 3F3; remark: listed apart in the source
# human GST-VEGF [9] = molecular target: T1, human GST-VEGF; assay: competition ELISA on coated GST-VEGF; soluble scFv 2H1 titrated; competitor phage scFv 1C9
# human GST-VEGF [10] = molecular target: T1, human GST-VEGF; assay: competition ELISA on coated GST-VEGF; soluble scFv 2H1 titrated; competitor phage scFv 3E4
# human GST-VEGF [11] = molecular target: T1, human GST-VEGF; assay: competition ELISA on coated GST-VEGF; soluble scFv 2H1 titrated; competitor phage scFv 1H3
# human GST-VEGF [12] = molecular target: T1, human GST-VEGF; assay: competition ELISA on coated GST-VEGF; soluble scFv 2H1 titrated; competitor phage scFv 2D1O
# human GST-VEGF [13] = molecular target: T1, human GST-VEGF; assay: competition ELISA on coated GST-VEGF; soluble scFv 2H1 titrated; competitor phage scFv 3H2
# human GST-VEGF [14] = molecular target: T1, human GST-VEGF; assay: competition ELISA on coated GST-VEGF; soluble scFv 2H1 titrated; competitor phage scFv 2F6
# human GST-VEGF [15] = molecular target: T1, human GST-VEGF; assay: competition ELISA on coated GST-VEGF; soluble scFv 2H1 titrated; competitor phage scFv 4D8; remark: listed apart in the source
# human GST-VEGF [16] = molecular target: T1, human GST-VEGF; assay: competition ELISA on coated GST-VEGF; soluble scFv 2H1 titrated; competitor phage scFv 3E5
# human GST-VEGF [17] = molecular target: T1, human GST-VEGF; assay: competition ELISA on coated GST-VEGF; soluble scFv 2H1 titrated; competitor phage scFv 2F6; remark: listed apart in the source
# P64K-VEGFKDR- (human) = P64K-VEGFKDR- (human) (UniProt P15692); assay: ELISA; antigen coated 1 µg/ml; scFv 10 µg/mL; 9E10-peroxidase
# human GST-VEGF [18] = molecular target: T1, human GST-VEGF; assay: competition ELISA on coated GST-VEGF; soluble scFv 2H1 titrated; competitor phage scFv 4E11
# human GST-VEGF [19] = molecular target: T1, human GST-VEGF; assay: competition ELISA on coated GST-VEGF; soluble scFv 2H1 titrated; competitor phage scFv 2A7
# human GST-VEGF [20] = molecular target: T1, human GST-VEGF; assay: competition ELISA on coated GST-VEGF; soluble scFv 2H1 titrated; competitor phage scFv 1D12
# human GST-VEGF [21] = molecular target: T1, human GST-VEGF; assay: competition ELISA on coated GST-VEGF; soluble scFv 2H1 titrated; competitor phage scFv L1
# human GST-VEGF [22] = molecular target: T1, human GST-VEGF; assay: competition ELISA on coated GST-VEGF; soluble scFv 2H1 titrated; competitor phage scFv 3D4
# human GST-VEGF [23] = molecular target: T1, human GST-VEGF; assay: competition ELISA on coated GST-VEGF; soluble scFv 2H1 titrated; competitor phage scFv 3E3
# human GST-VEGF [24] = molecular target: T1, human GST-VEGF; assay: competition ELISA on coated GST-VEGF; soluble scFv 2H1 titrated; competitor phage scFv L3H7
# human GST-VEGF [25] = molecular target: T1, human GST-VEGF; assay: competition ELISA on coated GST-VEGF; soluble scFv 2H1 titrated; competitor phage scFv L3
# human GST-VEGF [26] = molecular target: T1, human GST-VEGF; assay: competition ELISA on coated GST-VEGF; soluble scFv 2H1 titrated; competitor phage scFv 3E3; remark: listed apart in the source
binder,measurement,setting,value
B1,IC50,human GST-VEGF [1],15 µg/mL
same,IC50,human GST-VEGF [2],151 µg/mL
same,IC50,human GST-VEGF [3],48.9 µg/mL
same,IC50,human GST-VEGF [4],10.2 µg/mL
same,IC50,human GST-VEGF [5],120 µg/mL
same,IC50,human GST-VEGF [6],32 µg/mL
same,IC50,human GST-VEGF [7],15.3 µg/mL
same,IC50,human GST-VEGF [8],49.7 µg/mL
same,IC50,human GST-VEGF [9],38.3 µg/mL
same,IC50,human GST-VEGF [10],13.5 µg/mL
same,IC50,human GST-VEGF [11],110 µg/mL
same,IC50,human GST-VEGF [12],65.7 µg/mL
same,IC50,human GST-VEGF [13],19.6 µg/mL
same,IC50,human GST-VEGF [14],119 µg/mL
same,IC50,human GST-VEGF [15],33 µg/mL
same,IC50,human GST-VEGF [16],9.06 µg/mL
same,IC50,human GST-VEGF [17],115 µg/mL
same,absorbance at 492 nm,P64K-VEGFKDR- (human),0.764
same,IC50,human GST-VEGF [18],5.28 µg/mL
same,IC50,human GST-VEGF [19],15.8 µg/mL
same,IC50,human GST-VEGF [20],58.9 µg/mL
same,IC50,human GST-VEGF [21],11.7 µg/mL
same,IC50,human GST-VEGF [22],16.3 µg/mL
same,IC50,human GST-VEGF [23],34.6 µg/mL
same,IC50,human GST-VEGF [24],890 µg/mL
same,IC50,human GST-VEGF [25],350 µg/mL
same,IC50,human GST-VEGF [26],35.1 µg/mL
